Measured values as given in US20190241648A1 (STATEN BIOTECHNOLOGY B V, published 2019).
Ends that are not written are not given here.

Tests used:
Assay in all cases: peptide microarray
ApoC3 peptide … D59W = molecular target: T1, ApoC3 peptide … D59W (human, not fully specified (bridges); also: cyclic constrained)
T1 peptide: WKFSEFWDLDPEV
How it was run: (§1)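 ApoC3 peptide microarrays incubated with antibody samples and then stained with goat anti-human IgG (Fc) DyLight680 plus anti-HA DyLight800 control antibody. Scanned at intensity 7/7 (red/green); a secondary-only prestain checked for background, and framing HA peptides served as quality control.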

ApoC3 peptide … D59P = molecular target: T2, ApoC3 peptide … D59P (human, cyclic constrained)
T2 peptide: PKFSEFWDLDPEV
How it was run: as §1

ApoC3 peptide … D68P = molecular target: T3, ApoC3 peptide … D68P (human, cyclic constrained)
T3 peptide: DKFSEFWDLPPEV
How it was run: as §1

ApoC3 peptide … D68F = molecular target: T4, ApoC3 peptide … D68F (human, cyclic constrained)
T4 peptide: DKFSEFWDLFPEV
How it was run: as §1

ApoC3 peptide … D59C = molecular target: T5, ApoC3 peptide … D59C (human, cyclic constrained)
T5 peptide: CKFSEFWDLDPEV
How it was run: as §1

ApoC3 peptide … D68G = molecular target: T6, ApoC3 peptide … D68G (human, cyclic constrained)
T6 peptide: DKFSEFWDLGPEV
How it was run: as §1

ApoC3 peptide … F61E = molecular target: T7, ApoC3 peptide … F61E (human, cyclic constrained)
T7 peptide: DKESEFWDLDPEV
How it was run: as §1

ApoC3 peptide … F61V = molecular target: T8, ApoC3 peptide … F61V (human, not fully specified (bridges); also: cyclic constrained)
T8 peptide: DKVSEFWDLDPEV
How it was run: as §1

ApoC3 peptide … L67K = molecular target: T9, ApoC3 peptide … L67K (human, not fully specified (bridges); also: cyclic constrained)
T9 peptide: DKFSEFWDKDPEV
How it was run: as §1

ApoC3 peptide … E70F = ApoC3 peptide … E70F (human, cyclic constrained)
How it was run: as §1

ApoC3 peptide … P69D = molecular target: T10, ApoC3 peptide … P69D (human, not fully specified (bridges); also: cyclic constrained)
T10 peptide: DKFSEFWDLDDEV
How it was run: as §1

ApoC3 peptide … D59E = molecular target: T11, ApoC3 peptide … D59E (human, cyclic constrained)
T11 peptide: EKFSEFWDLDPEV
How it was run: as §1

ApoC3 peptide … K60W = molecular target: T12, ApoC3 peptide … K60W (human, not fully specified (bridges); also: cyclic constrained)
T12 peptide: DWFSEFWDLDPEV
How it was run: as §1

ApoC3 peptide … D59I = molecular target: T13, ApoC3 peptide … D59I (human, cyclic constrained)
T13 peptide: IKFSEFWDLDPEV
How it was run: as §1

ApoC3 peptide … E63P = ApoC3 peptide … E63P (human, cyclic constrained)
How it was run: as §1

ApoC3 peptide … K60M = molecular target: T14, ApoC3 peptide … K60M (human, not fully specified (bridges); also: cyclic constrained)
T14 peptide: DMFSEFWDLDPEV
How it was run: as §1

ApoC3 peptide … L67R = molecular target: T15, ApoC3 peptide … L67R (human, not fully specified (bridges); also: cyclic constrained)
T15 peptide: DKFSEFWDRDPEV
How it was run: as §1

ApoC3 peptide … F64L = molecular target: T16, ApoC3 peptide … F64L (human, not fully specified (bridges); also: cyclic constrained)
T16 peptide: DKFSELWDLDPEV
How it was run: as §1

ApoC3 peptide … S62M = ApoC3 peptide … S62M (human, cyclic constrained)
How it was run: as §1

ApoC3 peptide … S62A = ApoC3 peptide … S62A (human, cyclic constrained)
How it was run: as §1

ApoC3 peptide … E63T = ApoC3 peptide … E63T (human, cyclic constrained)
How it was run: as §1

ApoC3 peptide … P69V = ApoC3 peptide … P69V (human, cyclic constrained)
How it was run: as §1

ApoC3 peptide … V71C = ApoC3 peptide … V71C (human, cyclic constrained)
How it was run: as §1

ApoC3 peptide … K60E = molecular target: T17, ApoC3 peptide … K60E (human, not fully specified (bridges); also: cyclic constrained)
T17 peptide: DEFSEFWDLDPEV
How it was run: as §1

ApoC3 peptide … K60D = molecular target: T18, ApoC3 peptide … K60D (human, not fully specified (bridges); also: cyclic constrained)
T18 peptide: DDFSEFWDLDPEV
How it was run: as §1

ApoC3 peptide … E63D = ApoC3 peptide … E63D (human, cyclic constrained)
How it was run: as §1

ApoC3 peptide … F64A = molecular target: T19, ApoC3 peptide … F64A (human, not fully specified (bridges); also: cyclic constrained)
T19 peptide: DKFSEAWDLDPEV
How it was run: as §1

ApoC3 peptide … F61N = molecular target: T20, ApoC3 peptide … F61N (human, not fully specified (bridges); also: cyclic constrained)
T20 peptide: DKNSEFWDLDPEV
How it was run: as §1

ApoC3 peptide … L67T = molecular target: T21, ApoC3 peptide … L67T (human, not fully specified (bridges); also: cyclic constrained)
T21 peptide: DKFSEFWDTDPEV
How it was run: as §1

ApoC3 peptide … K60V = molecular target: T22, ApoC3 peptide … K60V (human, not fully specified (bridges); also: cyclic constrained)
T22 peptide: DVFSEFWDLDPEV
How it was run: as §1

ApoC3 peptide … P69N = ApoC3 peptide … P69N (human, cyclic constrained)
How it was run: as §1

ApoC3 peptide … D66V = molecular target: T23, ApoC3 peptide … D66V (human, not fully specified (bridges); also: cyclic constrained)
T23 peptide: DKFSEFWVLDPEV
How it was run: as §1

ApoC3 peptide … S62G = ApoC3 peptide … S62G (human, cyclic constrained)
How it was run: as §1

[1] = molecular target: T24, wild-type ApoC3 peptide DKFSEFWDLDPEV (SEQ ID NO: 44) (human, not fully specified (bridges); also: cyclic constrained, ring type and positions not given here)
T24 construct: 13 aa cyclic constrained peptide
T24 peptide: DKFSEFWDLDPEV
How it was run: as §1

ApoC3 peptide … D59N = molecular target: T25, ApoC3 peptide … D59N (human, cyclic constrained)
T25 peptide: NKFSEFWDLDPEV
How it was run: as §1

ApoC3 peptide … L67N = molecular target: T26, ApoC3 peptide … L67N (human, not fully specified (bridges); also: cyclic constrained)
T26 peptide: DKFSEFWDNDPEV
How it was run: as §1

ApoC3 peptide … D59F = molecular target: T27, ApoC3 peptide … D59F (human, not fully specified (bridges); also: cyclic constrained)
T27 peptide: FKFSEFWDLDPEV
How it was run: as §1

B1: anti-ApoC3 antibody 6A6 (antibody, V domains shown)
VH: EVQLVESGGGLVQPGGSLRLSCAASGFTFSSYAGRWVRQVPGKGLEWVSSINAGGGSTSYADSVKGRFTISRDNAKNTLYLQMNSLKPEDTAKYYCTQNSYRYWGQGTRVAVSS
VL: DVVLTQTPGSLSVVPGESASISCKASQSLIHTDGKTYLYWLLQKPGQRPQLLIYQVSSHESGVPDRFTGSGSGTDFTLKISGVKAEDAGVYYCAQATYNPRTFGQGTKLEIK
notes: it was detected with goat anti-human IgG (Fc); also called mAb 6A6; llama antibody 6A6
% of binding to wild-type peptide (ApoC3 peptide … D59W): 78.1%
% of binding to wild-type peptide (ApoC3 peptide … D59P): 107%
% of binding to wild-type peptide (ApoC3 peptide … D68P): 0%
% of binding to wild-type peptide (ApoC3 peptide … D68F): 0%
% of binding to wild-type peptide (ApoC3 peptide … D59C): 69.2%
% of binding to wild-type peptide (ApoC3 peptide … D68G): 0%
% of binding to wild-type peptide (ApoC3 peptide … F61E): 83.9%
% of binding to wild-type peptide (ApoC3 peptide … F61V): 47%
% of binding to wild-type peptide (ApoC3 peptide … L67K): 25.8%
% of binding to wild-type peptide (ApoC3 peptide … E70F): 9.36%
% of binding to wild-type peptide (ApoC3 peptide … P69D): 98.5%
% of binding to wild-type peptide (ApoC3 peptide … D59E): 170%
% of binding to wild-type peptide (ApoC3 peptide … K60W): 78.6%
% of binding to wild-type peptide (ApoC3 peptide … D59I): 103%
% of binding to wild-type peptide (ApoC3 peptide … E63P): 138%
% of binding to wild-type peptide (ApoC3 peptide … K60M): 146%
% of binding to wild-type peptide (ApoC3 peptide … L67R): 22.6%
% of binding to wild-type peptide (ApoC3 peptide … F64L): 89.7%
% of binding to wild-type peptide (ApoC3 peptide … S62M): 63.5%
% of binding to wild-type peptide (ApoC3 peptide … S62A): 97.3%
% of binding to wild-type peptide (ApoC3 peptide … E63T): 35.9%
% of binding to wild-type peptide (ApoC3 peptide … P69V): 68.3%
% of binding to wild-type peptide (ApoC3 peptide … V71C): 100%
% of binding to wild-type peptide (ApoC3 peptide … K60E): 223%
% of binding to wild-type peptide (ApoC3 peptide … K60D): 151%
% of binding to wild-type peptide (ApoC3 peptide … E63D): 77.9%
% of binding to wild-type peptide (ApoC3 peptide … F64A): 166%
% of binding to wild-type peptide (ApoC3 peptide … F61N): 48.3%
% of binding to wild-type peptide (ApoC3 peptide … L67T): 100%
% of binding to wild-type peptide (ApoC3 peptide … K60V): 106%
% of binding to wild-type peptide (ApoC3 peptide … P69N): 32.7%
% of binding to wild-type peptide (ApoC3 peptide … D66V): 0%
% of binding to wild-type peptide (ApoC3 peptide … S62G): 53.9%
% of binding to wild-type peptide [1]: 100%
% of binding to wild-type peptide (ApoC3 peptide … D59N): 77.5%
% of binding to wild-type peptide (ApoC3 peptide … L67N): 19.8%
% of binding to wild-type peptide (ApoC3 peptide … D59F): 61.5%
